B1: ^68Ga-NOTA-TR01 (peptide)
peptide: AVFVWNYYIIRRYYCK
modifications: cyclo(Ac-Ala1 ... Cys15) as printed; N-terminal Ac; NMe-Tyr at position 14; PEG12 between Cys15 and the C-terminal Lys; NOTA on the Lys, holding ^68Ga
B2: NOTA-TR01 [cyclo(Ac-Ala-Val-Phe-Val-Trp-Asn-Tyr-Tyr-Ile-Ile-Arg-Arg-Tyr-NMe-Tyr-Cys)-PEG12-Lys-NOTA] (peptide)
peptide: AVFVWNYYIIRRYYCK
modifications: cyclo(Ac-Ala1 ... Cys15) as printed; N-terminal Ac; NMe-Tyr at position 14; PEG12 between Cys15 and the C-terminal Lys; NOTA on the Lys
notes: the 15-residue macrocycle, printed in three-letter code; position 14 is N-methyl-Tyr; C-terminal Lys that carries NOTA; joined to Cys15 through a PEG12 spacer (no amino acids); a thioether from an N-terminal chloroacetyl group is only surmised; also called unlabeled TR01; unlabeled NOTA-TR01; source: synthetic peptide, custom synthesized by A+ Peptide (Shanghai, China), >95% purity

Legend:
[1] = target: Transferrin Receptor 1 (TfR1/CD71) on human colorectal cancer cells (HT29: high expression); LOVO: low … (human (endogenous in HT29 and LOVO), UniProt P02786 1-760); assay: cell-based or functional assay
Sequence of Transferrin Receptor 1 (TfR1/CD71) on human colorectal cancer cells (HT29: high expression); LOVO: low … (P02786 whole entry): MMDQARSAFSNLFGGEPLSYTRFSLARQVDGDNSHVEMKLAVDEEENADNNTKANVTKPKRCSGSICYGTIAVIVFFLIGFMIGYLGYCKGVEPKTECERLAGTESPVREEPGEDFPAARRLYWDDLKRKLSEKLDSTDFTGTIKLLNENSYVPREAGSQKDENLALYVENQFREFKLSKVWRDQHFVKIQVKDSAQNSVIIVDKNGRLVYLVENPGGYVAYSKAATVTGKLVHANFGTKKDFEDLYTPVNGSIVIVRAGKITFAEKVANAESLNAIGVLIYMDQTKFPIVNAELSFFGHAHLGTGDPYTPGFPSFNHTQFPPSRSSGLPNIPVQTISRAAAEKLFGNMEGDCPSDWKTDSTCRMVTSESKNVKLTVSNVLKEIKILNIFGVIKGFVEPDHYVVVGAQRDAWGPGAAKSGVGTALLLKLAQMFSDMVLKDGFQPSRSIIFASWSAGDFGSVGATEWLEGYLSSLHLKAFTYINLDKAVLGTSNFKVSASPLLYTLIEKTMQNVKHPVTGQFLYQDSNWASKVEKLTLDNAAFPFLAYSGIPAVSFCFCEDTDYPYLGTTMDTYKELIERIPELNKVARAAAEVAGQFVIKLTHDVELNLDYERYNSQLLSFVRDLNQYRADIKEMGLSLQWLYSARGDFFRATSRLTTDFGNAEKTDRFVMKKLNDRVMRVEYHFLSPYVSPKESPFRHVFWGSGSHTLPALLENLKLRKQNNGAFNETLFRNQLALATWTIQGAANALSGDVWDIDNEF

[2] = target: T1, Recombinant human TfR1-Fc protein (TFR-H5264, Acro Biosystems) (human, UniProt P02786 101-760); assay: SPR; Biacore 8K; recombinant human TfR1-Fc immobilized on the sensor chip; TR01 at 62.5–1,000 nM; as printed: 'acidic conditions (pH 2.0) using a running buffer containing TfR1 at 30 μg/mL'; global fit of association and dissociation curves; settings: both partners purified
T1 construct: Transferrin receptor 1 (TfR1/CD71), human; As recalled, the supplier's TfR1 constructs hold the extracellular part (about Cys89-Phe760); source: bought: Acro Biosystems
T1 sequence (P02786 101-760): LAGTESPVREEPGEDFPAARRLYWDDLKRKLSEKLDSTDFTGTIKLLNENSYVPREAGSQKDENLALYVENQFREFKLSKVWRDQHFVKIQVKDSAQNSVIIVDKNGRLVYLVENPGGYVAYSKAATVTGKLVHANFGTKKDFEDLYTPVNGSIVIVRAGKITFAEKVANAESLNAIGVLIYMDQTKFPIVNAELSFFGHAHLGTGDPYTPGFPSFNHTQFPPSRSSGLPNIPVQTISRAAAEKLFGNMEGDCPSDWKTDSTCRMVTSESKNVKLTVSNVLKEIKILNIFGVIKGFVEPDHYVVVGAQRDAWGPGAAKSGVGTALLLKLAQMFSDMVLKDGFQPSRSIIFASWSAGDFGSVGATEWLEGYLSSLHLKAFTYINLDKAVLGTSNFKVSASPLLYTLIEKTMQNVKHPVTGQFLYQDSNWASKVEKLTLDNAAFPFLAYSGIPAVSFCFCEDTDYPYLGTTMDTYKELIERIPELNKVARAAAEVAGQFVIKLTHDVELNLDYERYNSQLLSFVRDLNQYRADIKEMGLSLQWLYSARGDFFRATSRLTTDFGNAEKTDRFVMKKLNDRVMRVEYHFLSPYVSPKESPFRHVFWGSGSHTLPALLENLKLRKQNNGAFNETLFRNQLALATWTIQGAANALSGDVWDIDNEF

Binder	biodistribution: tumor-to-muscle (T/M) ratio in HT29 tumor-bearing mice, 30 to 120 min postinjection (3.73, 5.10, 9.18) [1]	biodistribution: tumor-to-muscle (T/M) ratio in LOVO-bearing mice (low TfR1), 30 to 120 min postinjection (2.30, 3.16, 5.01) [1]	tumor-to-muscle (T/M) ratio in HT29 xenografts by micro-PET/CT with coinjection of excess unlabeled NOTA-TR01, 30 to 120 min (0.47, 0.45, 0.86) [1]	tumor-to-muscle (T/M) ratio in HT29 xenografts by micro-PET/CT, 30 to 120 min postinjection (2.79, 3.98, 7.88) [1]	tumor-to-muscle (T/M) ratio in LOVO xenografts (low TfR1) by micro-PET/CT, 30 to 120 min postinjection (1.65, 2.30, 2.94) [1]	Kd [2]	koff [2]	kon [2]
B1	9.18	5.01	0.86	7.88	2.94	–	–	–
B2	–	–	–	–	–	22.3 nM	0.00173 s⁻¹	77300 M⁻¹ s⁻¹

Source: article PMC12750270, “Design and Preclinical Evaluation of a ^68Ga-Labeled Macrocyclic Peptide PET Probe Targeting Transferrin Receptor 1 in Colorectal Cancer” (ACS Omega, 2025)
